These results are taken from patent US20210115138A1 (WUXI BIOLOGICS IRELAND, published 2021).

Experiment [1] addresses T1, cynomolgus LAG-3 on cells (cynomolgus).
T1 construct: whole, on cells; also called cell surface cynomolgus LAG-3
The experiment can be described thus: flow cytometry on cynomolgus LAG-3 expressing 293F cells. The protocol:
(§1) MFI of the cells was measured by flow cytometry and analyzed by FlowJo.

For experiment [2], the target named is T2, human LAG-3 on cells (human, UniProt P18627 23-525).
T2 sequence (looked up): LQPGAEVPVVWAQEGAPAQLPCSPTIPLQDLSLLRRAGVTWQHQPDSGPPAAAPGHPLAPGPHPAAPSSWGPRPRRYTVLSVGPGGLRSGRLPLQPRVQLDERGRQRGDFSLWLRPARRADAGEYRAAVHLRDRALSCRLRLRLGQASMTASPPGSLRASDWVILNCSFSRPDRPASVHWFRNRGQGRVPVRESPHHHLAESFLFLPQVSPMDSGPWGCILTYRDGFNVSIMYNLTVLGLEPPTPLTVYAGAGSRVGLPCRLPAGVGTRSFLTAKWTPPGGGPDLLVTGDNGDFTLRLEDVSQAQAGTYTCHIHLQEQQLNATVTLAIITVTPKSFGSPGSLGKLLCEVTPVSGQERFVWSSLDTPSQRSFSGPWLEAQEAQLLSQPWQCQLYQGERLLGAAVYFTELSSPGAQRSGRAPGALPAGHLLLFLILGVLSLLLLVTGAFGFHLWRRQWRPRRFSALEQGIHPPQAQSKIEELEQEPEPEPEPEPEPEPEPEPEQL
The experiment can be described thus: cell-based or functional assay.

Experiment [3] has as its target T3, cynomolgus PD-1 on cells (cynomolgus, UniProt B0LAJ3 25-288).
T3 construct: also called cell surface cynomolgus PD-1
The experiment is described as follows: flow cytometry on cynomolgus PD-1 expressing 293F cells. The protocol: as §1

The target of experiment [4] is T2, human LAG-3 on cells. The experiment is described as follows: flow cytometry on human LAG-3 expressing 293F cells. The protocol: (§2) MFI of the cells was measured by flow cytometry and analyzed by FlowJo (version 7.6.1).
In experiment [5] the target is T4, His-tagged human PD-1 protein (MW: 40 KD) (human, UniProt Q15116 25-167).
T4 construct: not shown: His tag
T4 sequence (Q15116 25-167 limits assumed): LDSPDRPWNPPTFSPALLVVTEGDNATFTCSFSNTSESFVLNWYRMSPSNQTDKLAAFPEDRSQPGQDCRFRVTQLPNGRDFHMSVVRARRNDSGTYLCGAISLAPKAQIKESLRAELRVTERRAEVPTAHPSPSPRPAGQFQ
The experiment is described as follows: SPR Biacore 8K; antibody captured on anti-human Fc, His-PD-1 injected. The protocol: Binding affinity of the bispecific antibodies to the antigen were determined by SPR assay using Biacore 8K. PD-1×LAG-3 antibodies were captured on an anti-human IgG Fc antibody immobilized CMS sensor chip (GE).
(§3) The sensorgrams of blank surface and buffer channel were subtracted from the test sensorgrams. The experimental data was fitted by 1:1 model using Langmiur analysis.

Experiment [6] addresses T5, mouse Fc-tagged human PD-1 protein (human, UniProt Q15116 25-170).
T5 construct: extracellular domain; also called mouse Fc-tagged PD-1 protein; not shown: mouse Fc tag
The experiment is described as follows: dual-binding ELISA; mFc-PD-1 coated, antibody titrated, detected by His-tagged LAG-3 and anti-His-HRP.

For experiment [7], the target named is T6, mouse Fc-tagged human LAG-3 protein (human, UniProt P18627 23-450).
T6 construct: extracellular domain; also called mouse Fc-tagged LAG-3 protein; not shown: mouse Fc tag
T6 sequence (looked up): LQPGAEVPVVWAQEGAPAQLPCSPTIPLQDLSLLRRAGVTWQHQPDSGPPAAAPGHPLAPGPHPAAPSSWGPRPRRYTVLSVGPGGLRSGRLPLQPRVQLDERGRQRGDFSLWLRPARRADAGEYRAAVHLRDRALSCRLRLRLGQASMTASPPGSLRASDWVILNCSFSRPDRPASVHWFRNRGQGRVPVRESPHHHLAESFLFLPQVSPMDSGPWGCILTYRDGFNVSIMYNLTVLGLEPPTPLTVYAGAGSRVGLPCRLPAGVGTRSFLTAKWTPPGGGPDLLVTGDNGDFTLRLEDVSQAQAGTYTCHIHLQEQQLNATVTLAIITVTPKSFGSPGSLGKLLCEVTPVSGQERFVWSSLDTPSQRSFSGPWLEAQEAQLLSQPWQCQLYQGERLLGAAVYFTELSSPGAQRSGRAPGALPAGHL
The experiment can be described thus: ELISA; antibody coated, mFc-tagged LAG-3 titrated. The method, then:
The plates were then washed and subsequently incubated with HRP-labeled goat anti-mouse IgG antibody for 1 hour. After washing, TMB substrate was added and the color reaction was stopped by 2M HCl. The absorbance at 450 nm was read using a microplate reader.

Experiment [8] deals with human CD4 protein (human, UniProt P01730 26-390, limits assumed). The experiment can be described thus: ELISA, human CD4 coated at 1 ug/mL, antibody added at 0.67 and 6.7 nM, OD450. The protocol:
(§4) Cross-reactivity to human CD4, CTLA-4 or CD28 was measured by ELISA. Plates were coated with human CD4, CTLA-4 or CD28 at 1 μg/mL overnight at 4° C. […] The plates were then washed and subsequently incubated with corresponding secondary antibody for 60 min. After washing, TMB substrate was added and the color reaction was stopped by 2M HCl.

For experiment [9], the target named is T7, human PD-1 on cells (human, UniProt Q15116 25-288).
T7 construct: whole, on cells; also called cell surface human PD-1; PD-1 expressing CHO-S cells
T7 sequence (Q15116 25-288): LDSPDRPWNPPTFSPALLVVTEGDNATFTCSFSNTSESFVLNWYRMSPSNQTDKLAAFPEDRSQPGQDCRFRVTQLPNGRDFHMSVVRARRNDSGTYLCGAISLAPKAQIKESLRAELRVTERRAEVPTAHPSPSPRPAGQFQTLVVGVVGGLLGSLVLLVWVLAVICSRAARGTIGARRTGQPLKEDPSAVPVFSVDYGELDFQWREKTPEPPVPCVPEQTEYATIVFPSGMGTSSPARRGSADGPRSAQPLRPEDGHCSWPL
The experiment can be described thus: flow cytometry on human PD-1 expressing cells. The protocol:
as §2

Experiment [10] addresses T8, mouse PD-1 protein (mouse, UniProt Q02242 25-167, limits assumed).
T8 sequence (looked up): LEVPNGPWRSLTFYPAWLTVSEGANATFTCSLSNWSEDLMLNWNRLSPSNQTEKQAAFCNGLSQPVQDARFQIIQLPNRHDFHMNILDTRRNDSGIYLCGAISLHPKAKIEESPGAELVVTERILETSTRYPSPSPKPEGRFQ
The experiment is described as follows: ELISA, antibody coated on the plate, mouse PD-1 (His tag on the sheet) added at 0.25, 2.5 and 25 nM, OD450. The method, then: After blocking and washing, various concentrations of mouse PD-1 protein were added to the plates and incubated at room temperature for 1 hour. The plates were then washed and subsequently incubated with HRP-labeled goat anti-mouse IgG antibody for 1 hour. After washing, TMB substrate was added and the color reaction was stopped by 2M HCl. The absorbance at 450 nm was read using a microplate reader.

The target of experiment [11] is T5, mouse Fc-tagged human PD-1 protein. The experiment can be described thus: ELISA; antibody coated, mFc-tagged PD-1 titrated.
Experiment [12] has as its target T9, human CD28 protein (human, UniProt P10747 19-152).
T9 construct: extracellular domain
The experiment is described as follows: ELISA, human CD28 coated at 1 ug/mL, antibody added at 0.67 and 6.7 nM, OD450. The protocol: as §4

In experiment [13] the target is T7, human PD-1 on cells. The experiment is described as follows: cell-based or functional assay.
Experiment [14] deals with T7, human PD-1 on cells. The experiment is described as follows: flow cytometry; competition with mFc-PD-L1 on PD-1 expressing CHO-S cells. The method, then:
The mixture was transferred into the 96-well plates seeded with PD-1 expressing CHO-S cells. […] The MFI was evaluated by flow cytometry and analyzed by the software FlowJo.

The target in experiment [15] is T6, mouse Fc-tagged human LAG-3 protein. The experiment is described as follows: flow cytometry; blocking of mFc-LAG-3 binding to MHC-II on Raji cells. The protocol: The mixture was transferred into the 96-well plates seeded with Raji cells which express MHC-II on the surface. […] The MFI was evaluated by flow cytometry and analyzed by the software FlowJo.
In experiment [16] the target is T10, human CTLA-4 protein (human, UniProt P16410 36-161).
T10 construct: extracellular domain
T10 sequence (P16410 36-161): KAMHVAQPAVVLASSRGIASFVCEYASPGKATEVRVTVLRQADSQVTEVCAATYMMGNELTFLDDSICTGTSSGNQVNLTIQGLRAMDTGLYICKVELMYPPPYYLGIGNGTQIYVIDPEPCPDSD
The experiment can be described thus: ELISA, human CTLA-4 coated at 1 ug/mL, antibody added at 0.67 and 6.7 nM, OD450. The protocol: as §4

Experiment [17] has as its target T11, Human LAG-3 without tag (human, UniProt P18627 23-450).
T11 construct: extracellular domain; also called untagged LAG-3 ECD protein
T11 sequence (looked up): T6 sequence (looked up)
The experiment can be described thus: SPR; antibody immobilized, untagged human LAG-3 injected, single-cycle kinetics. The method, then:
The chip was regenerated with 10 mM glycine (pH 1.5).
as §3

T5 sequence (Q15116 25-170): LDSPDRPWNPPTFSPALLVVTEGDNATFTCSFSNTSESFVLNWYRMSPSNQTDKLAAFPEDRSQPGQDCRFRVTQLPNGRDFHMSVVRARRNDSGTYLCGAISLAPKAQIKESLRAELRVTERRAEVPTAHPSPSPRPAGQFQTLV
T3 sequence (B0LAJ3 entry or part of it limits assumed): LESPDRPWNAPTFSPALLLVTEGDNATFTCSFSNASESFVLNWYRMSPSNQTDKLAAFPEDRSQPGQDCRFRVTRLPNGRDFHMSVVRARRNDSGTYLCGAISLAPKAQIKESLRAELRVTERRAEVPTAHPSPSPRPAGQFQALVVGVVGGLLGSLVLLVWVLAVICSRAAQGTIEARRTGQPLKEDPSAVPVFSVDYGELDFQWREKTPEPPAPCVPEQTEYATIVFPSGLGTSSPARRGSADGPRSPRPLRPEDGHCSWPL

B1: W365-U6T1.G15-1.uIgG4.SP (bispecific antibody)
heavy: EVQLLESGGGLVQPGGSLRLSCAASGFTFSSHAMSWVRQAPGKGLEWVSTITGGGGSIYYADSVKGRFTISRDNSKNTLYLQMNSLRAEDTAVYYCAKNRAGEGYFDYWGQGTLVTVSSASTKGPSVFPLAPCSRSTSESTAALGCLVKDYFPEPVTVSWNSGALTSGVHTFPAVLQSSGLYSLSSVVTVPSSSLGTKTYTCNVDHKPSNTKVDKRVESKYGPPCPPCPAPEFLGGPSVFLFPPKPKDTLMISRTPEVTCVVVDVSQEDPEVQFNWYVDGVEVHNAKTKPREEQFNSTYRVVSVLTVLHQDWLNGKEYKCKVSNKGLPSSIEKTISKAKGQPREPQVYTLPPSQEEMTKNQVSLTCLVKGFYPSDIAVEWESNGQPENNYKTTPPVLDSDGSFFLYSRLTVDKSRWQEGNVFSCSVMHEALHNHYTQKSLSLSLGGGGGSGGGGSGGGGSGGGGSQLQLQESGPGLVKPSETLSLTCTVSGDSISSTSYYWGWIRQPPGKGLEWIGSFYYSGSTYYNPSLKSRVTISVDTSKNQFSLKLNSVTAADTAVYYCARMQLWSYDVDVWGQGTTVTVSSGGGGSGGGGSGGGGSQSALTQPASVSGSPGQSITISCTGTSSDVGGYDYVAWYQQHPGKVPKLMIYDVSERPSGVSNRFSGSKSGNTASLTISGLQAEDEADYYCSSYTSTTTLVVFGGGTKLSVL
light: SYELTQPLSVSVALGQTARITCGGDNIGNKDVHWYQQKPGQAPVLVIYRDSNRPSGIPEGFSGSNSGNTATLTISRAQAGDEADYYCQVWDSIWVFGGGTKLTVLGQPKAAPSVTLFPPSSEELQANKATLVCLISDFYPGAVTVAWKADSSPVKAGVETTTPSKQSNNKYAASSYLSLTPEQWKSHKSYSCQVTHEGSTVEKTVAPTECS
notes: Anti-PD-1 (W3055-1.153.7) human IgG4 S228P; also called W365-G15
For the molecule B1, the EC50 stood at 20900 pM in experiment [1]; 310 pM in experiment [3]; 5880 pM in experiment [4]; 50 pM in [6]; 320 pM in [7]; 1340 pM in experiment [9]. The molecule further returned an EC50 in [11] of 70 pM. Moreover, the “EC50 of IL-2 pathways enhancement (luciferase reporter)” value in experiment [2] stood at 320 pM. For the same molecule, the Kd in experiment [5] amounted to 2160 pM; in experiment [17], 26.5 pM. Also, the figures for the koff in experiment [5] and in experiment [17] were 0.000592 s⁻¹ and 1.89e-05 s⁻¹, respectively. In addition, the kon in [5] stood at 275000 M⁻¹ s⁻¹; in [17], 714000 M⁻¹ s⁻¹. In addition, the binding result in experiment [8] was “no binding (tested: 6.7 nM)”; in experiment [10], “no binding (tested: 25 nM (mouse PD-1))”; in [12] it was “no binding (tested: 6.7 nM)”; in experiment [16], “no binding (tested: 6.7 nM)”. Besides, the “EC50 of NFAT pathways enhancement (luciferase reporter)” value in [13] came to 410 pM. Moreover, the IC50 in experiment [14] amounted to 1090 pM; in experiment [15], 1680 pM.
